Sequences and labels used below:
B1: A022600425 (protein)
chain: DVQLVESGGGVVQPGGSLRLSCVASGYVHKINFYGWYRQAPGKEREKVAHISIGDQTDYADSAKGRFTISRDESKNTVYLQMNSLRPEDTAAYYCRALSRIWPYDYWGQGTLVTVSSGGGGSEVQLVESGGGVVQPGGSLRLSCAASGSIFRSVFSSSTMEWYRQAPGKKRELVARIAPGEGTYYGALYADSVKGRFTISRDNAKNTVYLQMNSLRPEDTALYYCASGVAWGQGTLVTVSSGGGGSGGGGSGGGGSGGGGSEVQLVESGGGVVQPGGSLRLSCAASGFTFSSFAMTWVRRPPGKGLEWVATITNAGVTSYADSVKGRFTISRDNAKNTLYLQMNSLRPEDTALYICANARRTGPRAPTDIGSYRGQGTLVTVSSGGGGSGGGSEVQLVESGGGVVQPGGSLRLSCAASGFTFRSFGMSWVRQAPGKGPEWVSSISGSGSDTLYADSVKGRFTISRDNSKNTLYLQMNSLRPEDTALYYCTIGGSLSRSSQGTLVTVSSA
B2: A022600426 (protein)
chain: DVQLVESGGGVVQPGGSLRLSCVASGYVHKINFYGWYRQAPGKEREKVAHISIGDQTDYADSAKGRFTISRDESKNTVYLQMNSLRPEDTAAYYCRALSRIWPYDYWGQGTLVTVSSGGGGSEVQLVESGGGVVQPGGSLRLSCAASGSIFRSVFSSSTMEWYRQAPGKKRELVARIAPGEGTYYGALYADSVKGRFTISRDNAKNTVYLQMNSLRPEDTALYYCASGVAWGQGTLVTVSSGGGGSGGGGSGGGGSGGGGSEVQLVESGGGVVQPGGSLRLSCAASGFTFSSFAMTWVRRPPGKGLEWVATITNKGVTSYADSVKGRFTISRDNAKNTLYLQMNSLRPEDTALYICANARRTGPRAPTDIGSYRGQGTLVTVSSGGGGSGGGSEVQLVESGGGVVQPGGSLRLSCAASGFTFRSFGMSWVRQAPGKGPEWVSSISGSGSDTLYADSVKGRFTISRDNSKNTLYLQMNSLRPEDTALYYCTIGGSLSRSSQGTLVTVSSA
B3: A022600427 (protein)
chain: DVQLVESGGGVVQPGGSLRLSCVASGYVHKINFYGWYRQAPGKEREKVAHISIGDQTDYADSAKGRFTISRDESKNTVYLQMNSLRPEDTAAYYCRALSRIWPYDYWGQGTLVTVSSGGGGSEVQLVESGGGVVQPGGSLRLSCAASGFTFSSFAMTWVRRPPGKGLEWVATITNAGVTSYADSVKGRFTISRDNAKNTLYLQMNSLRPEDTALYICANARRTGPRAPTDIGSYRGQGTLVTVSSGGGGSGGGSEVQLVESGGGVVQPGGSLRLSCAASGSIFRSVFSSSTMEWYRQAPGKKRELVARIAPGEGTYYGALYADSVKGRFTISRDNAKNTVYLQMNSLRPEDTALYYCASGVAWGQGTLVTVSSGGGGSGGGSEVQLVESGGGVVQPGGSLRLSCAASGFTFRSFGMSWVRQAPGKGPEWVSSISGSGSDTLYADSVKGRFTISRDNSKNTLYLQMNSLRPEDTALYYCTIGGSLSRSSQGTLVTVSSA

Some results are limits rather than exact numbers.

In this assay the target is human GPC3 on cells (human) (UniProt P51654). The experiment in a line: cell-based or functional assay.
Molecule B1 came in with an IC50 (M) BxPC-3, xCELLigence human TDC assay, E:T 15:1, 60 h of more than 1e-07 M; an IC50 (M) HepG2, xCELLigence human TDC assay, E:T 15:1, 60 h of 1.11e-10 M; an IC50 (M) Huh-7, xCELLigence human TDC assay, E:T 15:1, 60 h of 1.58e-10 M; an IC50 (M) NCI-H23, xCELLigence human TDC assay, E:T 15:1, 60 h of more than 1e-07 M. Further, the IC50 (M) NCI-H661, xCELLigence human TDC assay, E:T 15:1, 60 h was determined as 2.59e-10 M.

Regarding B2, the IC50 (M) BxPC-3, xCELLigence human TDC assay, E:T 15:1, 60 h was more than 1e-07 M; the IC50 (M) HepG2, xCELLigence human TDC assay, E:T 15:1, 60 h was 1.25e-10 M; the IC50 (M) Huh-7, xCELLigence human TDC assay, E:T 15:1, 60 h was found to be 1.09e-10 M; the IC50 (M) NCI-H23, xCELLigence human TDC assay, E:T 15:1, 60 h is more than 1e-07 M. Besides, the IC50 (M) NCI-H661, xCELLigence human TDC assay, E:T 15:1, 60 h is 2.64e-10 M.

For the molecule B3, the IC50 (M) BxPC-3, xCELLigence human TDC assay, E:T 15:1, 60 h was more than 1e-07 M; the IC50 (M) HepG2, xCELLigence human TDC assay, E:T 15:1, 60 h is 1.03e-10 M; the IC50 (M) Huh-7, xCELLigence human TDC assay, E:T 15:1, 60 h amounted to 1.37e-10 M; the IC50 (M) NCI-H23, xCELLigence human TDC assay, E:T 15:1, 60 h was more than 1e-07 M. In addition, the IC50 (M) NCI-H661, xCELLigence human TDC assay, E:T 15:1, 60 h worked out at 1e-10 M.

The record behind these values is patent US20240092919A1.
